Results as given in paper PMC3367564.

Legend:
[1] = target: MBP-sAnk1(29-155) (UniProt P16157); assay: SPR
[2] = target: MBP-sAnk1(29-155) D111R (UniProt P16157); assay: SPR
[3] = target: obscurin (UniProt Q5VST9); settings: cited from earlier work

| peak binding relative to wild type [1] | ratio of binding to sAnk1-D111R over binding to wild type sAnk1 [2] | Substance | further results |
| --- | --- | --- | --- |
| 40 % of control | – | GST-Obsc(6316-6436) E6327A (domain or fragment) | – |
| 40 % of control | – | GST-Obsc(6316-6436) E6329A (domain or fragment) | – |
| – | 1.7 | GST-Obsc(6316-6436) K6337E (domain or fragment) | – |

Second part, the substance before the results:

| Substance | peak binding relative to wild type [1] | ratio of binding to sAnk1-D111R over binding to wild type sAnk1 [2] | further results |
| --- | --- | --- | --- |
| GST-Obsc(6316-6436) K6338A (domain or fragment) | – | 1.7 | – |
| GST-Obsc(6316-6436) K6338E (domain or fragment) | – | 3.7 | – |
| GST-Obsc(6316-6436) with the two N-terminal glutamates changed to alanines (E6327A, E6329A) (domain or fragment) | 10 % of control | – | – |
| GST-Obsc(6316-6436), wild type (domain or fragment) | – | 1.7 | – |
| small ankyrin 1 (from UniProt P16157) | – | – | Kd [3]: 0.13 µM |
